Article PMC7614494

Assays:
Mouse saposin A (mouse) [1] = assay: crystal structure; SapA-PC preparation (100 mM citrate pH 4.0, 150 mM NaCl) mixed with acid ceramidase; sitting drops at 293 K, 23.25% PEG 3350, 0.1 M Bis-Tris pH 5.6; only SapA found in the crystal; 3.17 Å
Mouse saposin A (mouse) [2] = assay: SEC-MALS; SapA after incubation with DDM-solubilised phosphatidylcholine (PC:SapA 30:1); Superdex 200 Increase 10/300 GL, 100 mM citrate pH 4.0, 150 mM NaCl, room temperature; protein conjugate analysis of three regions of a heterogeneous peak

stoichiometry N (Mouse saposin A (mouse) [1]): 4 | stoichiometry N (Mouse saposin A (mouse) [2]): 3 to 4
Substance: Mouse saposin A (natural protein)
